The text below walks through data of US20220298217A1 (FLAGSHIP PIONEERING INNOVATIONS VI, published 2022).

What all share (assay): cell-based or functional assay
For assay [1], the target named is Flag-PTHR1-YFP (parathyroid hormone receptor 1) expressed in transfected HEK293T cells (human) (UniProt Q03431).
For assay [2], the target named is T1, PTHR1 on CHO-K1/Ga15/PTHR1 cells (UniProt Q03431 27-593, limits assumed).
T1 sequence (looked up): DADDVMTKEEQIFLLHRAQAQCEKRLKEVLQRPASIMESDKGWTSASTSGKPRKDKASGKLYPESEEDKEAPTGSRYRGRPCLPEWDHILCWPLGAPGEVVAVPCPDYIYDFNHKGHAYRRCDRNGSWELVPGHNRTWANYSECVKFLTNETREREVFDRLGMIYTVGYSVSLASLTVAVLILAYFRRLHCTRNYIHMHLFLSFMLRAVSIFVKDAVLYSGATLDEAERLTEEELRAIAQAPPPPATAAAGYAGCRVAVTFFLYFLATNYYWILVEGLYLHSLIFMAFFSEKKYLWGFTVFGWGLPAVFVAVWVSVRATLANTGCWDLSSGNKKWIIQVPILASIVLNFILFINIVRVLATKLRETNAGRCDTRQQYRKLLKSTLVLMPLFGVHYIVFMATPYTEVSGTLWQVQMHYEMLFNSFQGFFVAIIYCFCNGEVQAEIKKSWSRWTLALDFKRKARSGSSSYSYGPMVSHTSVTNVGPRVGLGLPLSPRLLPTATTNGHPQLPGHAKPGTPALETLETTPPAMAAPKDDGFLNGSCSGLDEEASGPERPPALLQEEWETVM

The target in a further assay is T2, Flag-PTHR1-YFP (UniProt Q03431 27-593).
T2 sequence (looked up): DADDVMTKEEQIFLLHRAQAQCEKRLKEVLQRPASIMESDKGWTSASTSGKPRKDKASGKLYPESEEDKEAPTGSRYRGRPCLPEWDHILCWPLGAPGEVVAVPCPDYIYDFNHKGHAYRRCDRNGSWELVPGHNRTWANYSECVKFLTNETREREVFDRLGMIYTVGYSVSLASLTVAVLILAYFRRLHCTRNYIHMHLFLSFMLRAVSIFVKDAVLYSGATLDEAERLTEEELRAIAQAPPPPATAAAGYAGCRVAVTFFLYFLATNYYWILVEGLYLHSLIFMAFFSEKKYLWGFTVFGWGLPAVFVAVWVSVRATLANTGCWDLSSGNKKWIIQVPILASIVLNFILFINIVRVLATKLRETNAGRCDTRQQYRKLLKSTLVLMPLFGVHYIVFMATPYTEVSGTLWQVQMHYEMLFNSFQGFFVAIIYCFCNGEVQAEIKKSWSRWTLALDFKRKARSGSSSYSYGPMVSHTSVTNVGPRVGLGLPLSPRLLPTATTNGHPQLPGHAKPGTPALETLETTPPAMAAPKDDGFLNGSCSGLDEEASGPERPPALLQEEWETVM

Take PTH 7-36 antago (peptide): in assay [1], the arrestin 1, plate 25: -log10EC50 is -6.98 -log10EC50; the arrestin 1, plate 25: Emax was 7.68; the arrestin 2, plate 26: -log10EC50 is -7.33 -log10EC50; the arrestin 2, plate 26: Emax stood at 8.04.

Turning to AVAEIQLMHQRAKWELQEIGIAITLRLLARYI [R2-43], in assay [2], the “cAMP accumulation (HTRF): -log10EC50” value is -10.5 -log10EC50 (as headed) and the “cAMP accumulation (HTRF): Emax” value stood at 309%. In the assay with Flag-PTHR1-YFP, the “arrestin 2 recruitment (BRET): -log10EC50” value is -8.03 -log10EC50 (as headed) and the “arrestin 2 recruitment (BRET): Emax” value is 7.45.

Turning to AVAEIQLMHQRAKWSLREELEKLLKELLKEYI [R2-44], in assay [2], the “cAMP accumulation (HTRF): -log10EC50” value was -10.4 -log10EC50 (as headed) and the “cAMP accumulation (HTRF): Emax” value is 106%. Besides, in the assay with Flag-PTHR1-YFP, the “arrestin 2 recruitment (BRET): -log10EC50” value is -8.46 -log10EC50 (as headed) and the “arrestin 2 recruitment (BRET): Emax” value came out at 7.63.

As to AVAEIQLMHQRAKWEIQEIGIKITLELLKEYI [R2-37], in assay [2], the “cAMP accumulation (HTRF): -log10EC50” value is -9.09 -log10EC50 (as headed) and the “cAMP accumulation (HTRF): Emax” value was determined as 96.4%. For the same molecule, in the assay with Flag-PTHR1-YFP, the “arrestin 2 recruitment (BRET): -log10EC50” value is -5.86 -log10EC50 (as headed) and the “arrestin 2 recruitment (BRET): Emax” value stood at 17.

Regarding AVAEIQLMHQRAKWRAEYELREMLLRLLEEIF [R1-96], in assay [2], the “cAMP accumulation (HTRF): -log10EC50” value was -8.01 -log10EC50 (as headed) and the “cAMP accumulation (HTRF): Emax” value was determined as 99.7%.

With AVAEIQLMHQRAKWDLLIELVKLLHELLKEYI [R2-40], in assay [2], the “cAMP accumulation (HTRF): -log10EC50” value was -11.2 -log10EC50 (as headed) and the “cAMP accumulation (HTRF): Emax” value came to 95.1%. In the assay with Flag-PTHR1-YFP, the “arrestin 2 recruitment (BRET): -log10EC50” value was -5.85 -log10EC50 (as headed) and the “arrestin 2 recruitment (BRET): Emax” value was determined as 13.9.

AVAEIQLMHQRAKWELEYELFEMFLKLLEEIF [I1 (R1-100)]: in assay [2], the “cAMP accumulation (HTRF): -log10EC50” value is -7.28 -log10EC50 (as headed) and the “cAMP accumulation (HTRF): Emax” value came out at 99.9%.

With GIAVITLMVLRALLELQEIGRKITLELLKEYI [R2-51], in assay [2], the “cAMP accumulation (HTRF): -log10EC50” value was -9.98 -log10EC50 (as headed) and the “cAMP accumulation (HTRF): Emax” value stood at 3.99%.

For the molecule AVAEIQLMHQRAKWAIQEIGIKITRELLERYL [R2-42], in assay [2], the “cAMP accumulation (HTRF): -log10EC50” value was -6.54 -log10EC50 (as headed) and the “cAMP accumulation (HTRF): Emax” value turned out to be 97.6%. Further, in the assay with Flag-PTHR1-YFP, the “arrestin 2 recruitment (BRET): -log10EC50” value is -8.37 -log10EC50 (as headed) and the “arrestin 2 recruitment (BRET): Emax” value worked out at 7.53.

With AVAEIQLMHQRAKWSILEELLKILTALLDEYI [R2-46], in the assay with Flag-PTHR1-YFP, the “arrestin 2 recruitment (BRET): -log10EC50” value was -6.73 -log10EC50 (as headed) and the “arrestin 2 recruitment (BRET): Emax” value came to 8.34.

Consider AVAEIQLMHQRAKWGVELQLKVDLRRILEDVY [R2-35], for which, in assay [2], the “cAMP accumulation (HTRF): -log10EC50” value is -8.01 -log10EC50 (as headed) and the “cAMP accumulation (HTRF): Emax” value was 97%. Also, in the assay with Flag-PTHR1-YFP, the “arrestin 2 recruitment (BRET): -log10EC50” value is -3.46 -log10EC50 (as headed) and the “arrestin 2 recruitment (BRET): Emax” value worked out at 35.8.

With AVAEIQLMHQRAKWRLEIELLKKLKEILKDVY [R2-34], in assay [2], the “cAMP accumulation (HTRF): -log10EC50” value was -6.98 -log10EC50 (as headed) and the “cAMP accumulation (HTRF): Emax” value was 96.1%. Moreover, in the assay with Flag-PTHR1-YFP, the “arrestin 2 recruitment (BRET): -log10EC50” value was -8.41 -log10EC50 (as headed) and the “arrestin 2 recruitment (BRET): Emax” value came to 7.61.

Consider GVAMLQIMHDLAKIKQELELKDSMKKILEDVL [R2-50], for which, in assay [2], the “cAMP accumulation (HTRF): -log10EC50” value was -6.24 -log10EC50 (as headed) and the “cAMP accumulation (HTRF): Emax” value was determined as 99.8%. In addition, in the assay with Flag-PTHR1-YFP, the “arrestin 2 recruitment (BRET): -log10EC50” value is -10.5 -log10EC50 (as headed) and the “arrestin 2 recruitment (BRET): Emax” value is 6.45.

For AVAEIQLMHQRAKWIQDARRRAFLHKLIAEIH [LA-PM-FL (R1-81)], in assay [2], the “cAMP accumulation (HTRF): -log10EC50” value is -7.88 -log10EC50 (as headed) and the “cAMP accumulation (HTRF): Emax” value worked out at 95%.

As to AVAEIQLMHQRAKWDVLIELAKLLAELLRRYH [R2-47], in assay [2], the “cAMP accumulation (HTRF): -log10EC50” value was -9.23 -log10EC50 (as headed) and the “cAMP accumulation (HTRF): Emax” value worked out at 102%. For the same molecule, in the assay with Flag-PTHR1-YFP, the “arrestin 2 recruitment (BRET): -log10EC50” value is -5.77 -log10EC50 (as headed) and the “arrestin 2 recruitment (BRET): Emax” value turned out to be 15.2.

Regarding AVAEIQLMHQRAKWKQELELEEKNKKILEDVY [R2-32], in assay [2], the “cAMP accumulation (HTRF): -log10EC50” value was -6.51 -log10EC50 (as headed) and the “cAMP accumulation (HTRF): Emax” value came out at 101%.

Regarding AVAEIQLMHQRAKWKLELELKEKIRKLLEDLL [R2-29], in assay [2], the “cAMP accumulation (HTRF): -log10EC50” value was -7.22 -log10EC50 (as headed) and the “cAMP accumulation (HTRF): Emax” value worked out at 97.5%.

For AVAEIQLMHQRAKWLEELKLKDDLRKILEDVY [R2-30], in assay [2], the “cAMP accumulation (HTRF): -log10EC50” value is -7.1 -log10EC50 (as headed) and the “cAMP accumulation (HTRF): Emax” value came to 97.2%.

With GVAELQLMHDLAKIKLELELKVKLLEILKDVY [R2-49], in assay [2], the “cAMP accumulation (HTRF): -log10EC50” value was -5.79 -log10EC50 (as headed) and the “cAMP accumulation (HTRF): Emax” value was 99.9%.

Take VDFEIQLMQQRAQWIADYRIREFLDKLIAEIF [R1-94]: in assay [2], the “cAMP accumulation (HTRF): -log10EC50” value is -10.1 -log10EC50 (as headed) and the “cAMP accumulation (HTRF): Emax” value was 90.8%.

With AVAEIQLMHQRAKWKLELELKAFLDQILKDVL [R2-36], in assay [2], the “cAMP accumulation (HTRF): -log10EC50” value is -8.32 -log10EC50 (as headed) and the “cAMP accumulation (HTRF): Emax” value is 99%. Besides, in the assay with Flag-PTHR1-YFP, the “arrestin 2 recruitment (BRET): -log10EC50” value was -8.7 -log10EC50 (as headed) and the “arrestin 2 recruitment (BRET): Emax” value turned out to be 7.53.

AVAEIQLMHQRAKWKILEELLKILIDLLKQYI [R2-48]: in assay [2], the “cAMP accumulation (HTRF): -log10EC50” value is -7.19 -log10EC50 (as headed) and the “cAMP accumulation (HTRF): Emax” value came to 98.8%. Besides, in the assay with Flag-PTHR1-YFP, the “arrestin 2 recruitment (BRET): -log10EC50” value is -15.2 -log10EC50 (as headed) and the “arrestin 2 recruitment (BRET): Emax” value was 6.42.

In the case of AVAEIQLMHQRAKWGLEIELLKLLLSLLKEYI [R2-45], in assay [2], the “cAMP accumulation (HTRF): -log10EC50” value is -11.1 -log10EC50 (as headed) and the “cAMP accumulation (HTRF): Emax” value was 729%. Also, in the assay with Flag-PTHR1-YFP, the “arrestin 2 recruitment (BRET): -log10EC50” value is -5.76 -log10EC50 (as headed) and the “arrestin 2 recruitment (BRET): Emax” value came out at 16.1.

Regarding AVAEIQLMHQRAKWEIQEIGIKITLDLLQTLK [R2-41], in assay [2], the “cAMP accumulation (HTRF): -log10EC50” value is -10.3 -log10EC50 (as headed) and the “cAMP accumulation (HTRF): Emax” value was determined as 98.2%.

Take AVAEIQLMHQRAKWGLDLELRARLREILRDVY [R2-31]: in assay [2], the “cAMP accumulation (HTRF): -log10EC50” value was -14 -log10EC50 (as headed) and the “cAMP accumulation (HTRF): Emax” value amounted to 104%.

On to AVAEIQLMHQRAKWLNELRLKEEMRKILEDVY [R2-33], for which, in assay [2], the “cAMP accumulation (HTRF): -log10EC50” value was -7.1 -log10EC50 (as headed) and the “cAMP accumulation (HTRF): Emax” value was 96.9%.

Take AVAEIQLMHQRAKWELQEIGIKITLDLLEAYL [R2-39]: in the assay with Flag-PTHR1-YFP, the “arrestin 2 recruitment (BRET): -log10EC50” value was -7.7 -log10EC50 (as headed) and the “arrestin 2 recruitment (BRET): Emax” value worked out at 6.88.

As to GIAVITLMLLRAYLELLEELVKILHELLRRYH [R2-52], in assay [2], the “cAMP accumulation (HTRF): -log10EC50” value is -5.59 -log10EC50 (as headed) and the “cAMP accumulation (HTRF): Emax” value is 97.4%.

Consider AVAEIQLMHQRAKWELEFELFREFLKLLVDFF [I3 (R1-97)], for which, in assay [2], the “cAMP accumulation (HTRF): -log10EC50” value is -7.23 -log10EC50 (as headed) and the “cAMP accumulation (HTRF): Emax” value was 99.3%.

Take AVAEIQLMHQRAKWELLEELLKILLELLKEYI [R2-38]: in assay [2], the “cAMP accumulation (HTRF): -log10EC50” value was -6.91 -log10EC50 (as headed) and the “cAMP accumulation (HTRF): Emax” value was 99.1%.
